Measured values from article PMC4092090, “Investigation of a MMP-2 Activity-Dependent Anchoring Probe for Nuclear Imaging of Cancer” (PLoS ONE, 2014).
Where two headings read alike, the source gives them in different places.

Key:
[1] = test system: HT1080 tumor bearing mice; parameters: species or system mouse (Balb/c nu-nu); details: mouse, in vivo, iv; for Radioactivity biodistribution, Blood / Radioactivity biodistribution, Heart / Radioactivity biodistribution, Intestine / Radioactivity biodistribution, Kidneys / Radioactivity biodistribution, Liver / Radioactivity biodistribution, Lung / Radioactivity biodistribution, Muscle / Radioactivity biodistribution, Pancreas / Radioactivity biodistribution, Spleen / Radioactivity biodistribution, Stomach / Radioactivity biodistribution, Tumor / T/B (tumor to blood ratio): 37 kBq
Protocol: Female Balb/c nu-nu mice (5 weeks old, Japan SLC, Inc., Shizuoka, Japan) were housed under a 12-h light/12-h dark cycle and given free access to food and water. HT1080 cells (5×10^6 cells/100 μl PBS (-)/mouse) were subcutaneously inoculated into the right hind leg of Balb/c nu-nu mice. Animals were used for experiments two weeks after inoculation when the mean tumor size was 5.7±2.2 mm along the major axis. […]3000 and […] (37 kBq, 100 μl in PBS including 3% bovine serum albumin and 0.1% Tween 80) were injected intravenously into the tail vein of tumor bearing mice. The mice were sacrificed at various post-injection time points (n = 3 for each time point), and the organs of interest including the tumor tissues were collected for determination of the weights. The radioactivity of each sample was measured with a NaI well-type scintillation counter. From fitting to the two phase decay curves for blood radioactivity data analyzed by GraphPad Prism 6 (GraphPad Software, San Diego, CA), whole body pharmacokinetic parameters such as blood half-lives, distribution volume, mean residence time and total clearance were calculated for each of the probes and the values compared. Simple pharmacokinetic analysis using a single tissue compartment model was applied to the biodistribution data to calculate rate constants (K1 and k2) for radioactivity transfer from blood to tumor and clearance from tumor to blood by PMOD version 3.2. In addition, MDAP3000 (7.4 MBq in 200 μl) was injected intravenously into the tail vein of tumor bearing mice for metabolite analysis in tumors excised 3, 6, and 24 hr post injection (n = 2 each). Tumor homogenates were prepared on ice and insoluble material was removed by centrifugation after methanol treatment. The resulting supernatant was analyzed by RP-HPLC.

[2] = biological target: T1, Human-recombinant MMP-2 protein (Homo sapiens, UniProt P08253); experiment: Cleavage assay; type: biochemical; details: activated MMP-2 1–5 nM, 370 kBq probe, 37°C, 2 hr, pH 7.5 assay buffer, RP-HPLC, Fig. 3b
T1 construct: purchased R & D Systems, Inc. 902-MP-010
T1 sequence (P08253 110-660): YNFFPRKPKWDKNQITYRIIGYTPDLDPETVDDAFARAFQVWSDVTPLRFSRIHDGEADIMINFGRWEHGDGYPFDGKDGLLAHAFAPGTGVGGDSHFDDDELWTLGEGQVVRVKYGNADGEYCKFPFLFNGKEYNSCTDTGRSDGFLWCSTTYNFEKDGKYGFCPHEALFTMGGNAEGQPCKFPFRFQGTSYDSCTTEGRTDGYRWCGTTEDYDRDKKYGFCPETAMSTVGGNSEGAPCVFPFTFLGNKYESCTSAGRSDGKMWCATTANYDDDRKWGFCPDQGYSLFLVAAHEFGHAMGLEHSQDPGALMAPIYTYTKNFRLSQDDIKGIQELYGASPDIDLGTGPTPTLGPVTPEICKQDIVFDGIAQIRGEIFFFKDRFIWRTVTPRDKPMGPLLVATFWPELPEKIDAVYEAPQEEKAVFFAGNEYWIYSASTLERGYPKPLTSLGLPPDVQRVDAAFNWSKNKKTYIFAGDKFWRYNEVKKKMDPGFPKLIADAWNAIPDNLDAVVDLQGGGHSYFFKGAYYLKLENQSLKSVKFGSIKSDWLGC
Protocol: Human-recombinant MMP-2 protein (902-MP-010, R & D Systems, Inc., Minneapolis, MN USA) was activated with p-aminophenylmercuric acetate (1 mM) in assay buffer (50 mM Tris-HCl, 150 mM NaCl, 10 mM CaCl2, 5 µM ZnCl2, 0.02% Brij 35, pH 7.5). MDAP1000, MDAP3000, and MDAP5000 (370 kBq) were incubated at 37°C for 2 hr with activated MMP-2 (1–5 nM) and a MMP inhibitor (0 or 100 µM, GM6001, Merck KGaA, Darmstadt, Germany). The reaction was quenched by addition of methanol, and the percentage of cleaved peptide was estimated by RP-HPLC.

[3] = test system: HT1080 human fibrosarcoma cells; experiment: Cellular uptake study; type: cell-based; details: 5×10^5 HT1080 cells, FBS-free DMEM, 37 kBq probe, 30 min incubation, radioactivity counting, Fig. 3a
Protocol: HT1080 human fibrosarcoma cells were purchased from American Type Culture Collection (ATCC, Manassas, VA USA) and cultured in DMEM with low glucose (Invitrogen), 10% fetal bovine serum (FBS), and penicillin/streptomycin. MMP-2 cDNA was cloned into the pENTR vector (Invitrogen) and inserted into the pLenti6 vector (Invitrogen) as previously described, [7]. […] Protein quantitation was performed by BCA protein assay (Thermo Fisher Scientific, Inc. Rockford, IL USA). The cellular uptake study of MDAP3000 pretreated with activated MMP-2 (63 nM) in the presence or absence of GM6001 (100 µM) was performed as described above.

How did the “Blood clearance (in words)” value [1] turn out when “Palmitoyl-Dap(p-SCN-Bn-DTPA-^111In)-10-Adc-Gly-Pro-Leu-Gly-Val-Arg-Gly-Lys(ivDde)-PEG1000 [MDAP1000]” was run?
The value was “rapid blood clearance”.

And the “Tumor accumulation (in words)” value [1]?
The value was “low tumor accumulation”.

And the “Radioactivity biodistribution, Blood” value ([1]; 0.25 h)?
The value was 46.93±5.71 % injected dose per gram.

And the “Radioactivity biodistribution, Heart” value ([1]; 0.25 h)?
Its value is 9.40±2.03 % injected dose per gram.

And the “Radioactivity biodistribution, Intestine” value ([1]; 0.25 h)?
Its value is 4.18±0.58 % injected dose per gram.

What about the “Radioactivity biodistribution, Kidneys” value ([1]; 0.25 h) of the same substance?
Its value is 14.24±1.90 % injected dose per gram.

What about the “Radioactivity biodistribution, Liver” value ([1]; 0.25 h) of the same substance?
The value was 34.27±5.87 % injected dose per gram.

And the “Radioactivity biodistribution, Lung” value ([1]; 0.25 h)?
Its value is 21.23±2.65 % injected dose per gram.

And the “Radioactivity biodistribution, Muscle” value ([1]; 0.25 h)?
Its value is 2.15±0.57 % injected dose per gram.

What about the “Radioactivity biodistribution, Pancreas” value ([1]; 0.25 h) of the same substance?
The value was 4.28±0.41 % injected dose per gram.

What about the “Radioactivity biodistribution, Spleen” value ([1]; 0.25 h) of the same substance?
The value was 8.06±0.23 % injected dose per gram.

And the “Radioactivity biodistribution, Stomach” value ([1]; 0.25 h)?
The value was 1.03±0.15 % injected dose per organ.

And the “Radioactivity biodistribution, Tumor” value ([1]; 0.25 h)?
Its value is 1.70±0.85 % injected dose per gram.

And the “T/B (tumor to blood ratio)” value ([1]; 0.25 h)?
Its value is 0.04±0.01.

And the “Radioactivity biodistribution, Blood” value ([1]; 1 h)?
The value was 24.81±3.60 % injected dose per gram.

And the “Radioactivity biodistribution, Heart” value ([1]; 1 h)?
Its value is 8.43±1.19 % injected dose per gram.

What about the “Radioactivity biodistribution, Intestine” value ([1]; 1 h) of the same substance?
Its value is 8.97±0.28 % injected dose per gram.

And the “Radioactivity biodistribution, Kidneys” value ([1]; 1 h)?
The value was 11.66±1.17 % injected dose per gram.

And the “Radioactivity biodistribution, Liver” value ([1]; 1 h)?
The value was 42.27±8.44 % injected dose per gram.

And the “Radioactivity biodistribution, Lung” value ([1]; 1 h)?
Its value is 12.56±1.70 % injected dose per gram.

What about the “Radioactivity biodistribution, Muscle” value ([1]; 1 h) of the same substance?
Its value is 1.94±0.33 % injected dose per gram.

And the “Radioactivity biodistribution, Pancreas” value ([1]; 1 h)?
Its value is 5.52±1.05 % injected dose per gram.

What about the “Radioactivity biodistribution, Spleen” value ([1]; 1 h) of the same substance?
The value was 7.72±1.86 % injected dose per gram.

And the “Radioactivity biodistribution, Stomach” value ([1]; 1 h)?
The value was 1.13±0.21 % injected dose per organ.

And the “Radioactivity biodistribution, Tumor” value ([1]; 1 h)?
Its value is 1.90±0.38 % injected dose per gram.

What about the “T/B (tumor to blood ratio)” value ([1]; 1 h) of the same substance?
The value was 0.08±0.02.

What about the “Radioactivity biodistribution, Blood” value ([1]; 3 h) of the same substance?
The value was 10.58±1.28 % injected dose per gram.

What about the “Radioactivity biodistribution, Heart” value ([1]; 3 h) of the same substance?
Its value is 7.47±0.45 % injected dose per gram.

And the “Radioactivity biodistribution, Intestine” value ([1]; 3 h)?
Its value is 20.39±4.51 % injected dose per gram.

What about the “Radioactivity biodistribution, Kidneys” value ([1]; 3 h) of the same substance?
Its value is 10.56±1.49 % injected dose per gram.

What about the “Radioactivity biodistribution, Liver” value ([1]; 3 h) of the same substance?
Its value is 50.70±7.52 % injected dose per gram.

And the “Radioactivity biodistribution, Lung” value ([1]; 3 h)?
The value was 6.17±0.88 % injected dose per gram.

And the “Radioactivity biodistribution, Muscle” value ([1]; 3 h)?
The value was 2.00±0.38 % injected dose per gram.

And the “Radioactivity biodistribution, Pancreas” value ([1]; 3 h)?
The value was 4.50±1.45 % injected dose per gram.

And the “Radioactivity biodistribution, Spleen” value ([1]; 3 h)?
Its value is 10.01±3.77 % injected dose per gram.

And the “Radioactivity biodistribution, Stomach” value ([1]; 3 h)?
The value was 1.14±0.33 % injected dose per organ.

And the “Radioactivity biodistribution, Tumor” value ([1]; 3 h)?
The value was 2.65±0.33 % injected dose per gram.

And the “T/B (tumor to blood ratio)” value ([1]; 3 h)?
The value was 0.25±0.05.

What about the “Radioactivity biodistribution, Blood” value ([1]; 6 h) of the same substance?
Its value is 5.85±0.74 % injected dose per gram.

And the “Radioactivity biodistribution, Heart” value ([1]; 6 h)?
Its value is 5.71±0.61 % injected dose per gram.

What about the “Radioactivity biodistribution, Intestine” value ([1]; 6 h) of the same substance?
Its value is 13.23±3.92 % injected dose per gram.

And the “Radioactivity biodistribution, Kidneys” value ([1]; 6 h)?
Its value is 9.53±1.08 % injected dose per gram.

And the “Radioactivity biodistribution, Liver” value ([1]; 6 h)?
Its value is 30.08±5.98 % injected dose per gram.

And the “Radioactivity biodistribution, Lung” value ([1]; 6 h)?
The value was 4.38±0.32 % injected dose per gram.

What about the “Radioactivity biodistribution, Muscle” value ([1]; 6 h) of the same substance?
The value was 1.68±0.46 % injected dose per gram.

And the “Radioactivity biodistribution, Pancreas” value ([1]; 6 h)?
Its value is 5.53±1.77 % injected dose per gram.

And the “Radioactivity biodistribution, Spleen” value ([1]; 6 h)?
The value was 10.00±2.61 % injected dose per gram.

And the “Radioactivity biodistribution, Stomach” value ([1]; 6 h)?
Its value is 0.73±0.06 % injected dose per organ.

And the “Radioactivity biodistribution, Tumor” value ([1]; 6 h)?
Its value is 3.18±0.69 % injected dose per gram.

What about the “T/B (tumor to blood ratio)” value ([1]; 6 h) of the same substance?
Its value is 0.55±0.15.

And the “Radioactivity biodistribution, Blood” value ([1]; 24 h)?
Its value is 5.26±0.94 % injected dose per gram.

And the “Radioactivity biodistribution, Heart” value ([1]; 24 h)?
Its value is 4.11±0.44 % injected dose per gram.

What about the “Radioactivity biodistribution, Intestine” value ([1]; 24 h) of the same substance?
The value was 4.90±0.90 % injected dose per gram.

What about the “Radioactivity biodistribution, Kidneys” value ([1]; 24 h) of the same substance?
Its value is 7.01±0.45 % injected dose per gram.

And the “Radioactivity biodistribution, Liver” value ([1]; 24 h)?
Its value is 8.89±1.11 % injected dose per gram.

What about the “Radioactivity biodistribution, Lung” value ([1]; 24 h) of the same substance?
Its value is 2.63±0.28 % injected dose per gram.

What about the “Radioactivity biodistribution, Muscle” value ([1]; 24 h) of the same substance?
Its value is 1.55±0.13 % injected dose per gram.

What about the “Radioactivity biodistribution, Pancreas” value ([1]; 24 h) of the same substance?
The value was 6.21±3.76 % injected dose per gram.

What about the “Radioactivity biodistribution, Spleen” value ([1]; 24 h) of the same substance?
The value was 4.82±1.10 % injected dose per gram.

What about the “Radioactivity biodistribution, Stomach” value ([1]; 24 h) of the same substance?
The value was 0.49±0.09 % injected dose per organ.

And the “Radioactivity biodistribution, Tumor” value ([1]; 24 h)?
Its value is 3.33±0.44 % injected dose per gram.

What about the “T/B (tumor to blood ratio)” value ([1]; 24 h) of the same substance?
Its value is 0.65±0.15.

And the “Cleavage by MMP-2” value [2]?
Its value is “concentration-dependent manner”.

And the “Cellular accumulation (radioactivity in tumor cells)” value [3]?
Its value is “high radioactivity accumulation”.
